Legend:
[1] = target: Mas receptor, endogenous in mouse striatal cells (mouse (endogenous in primary striatal neurons and microglia)) (UniProt P30554); test: proximity ligation
[2] = target: T1, Mas receptor fused to Rluc (MasR-Rluc) (human), P04201; test: FRET or BRET; details: remark: other sources report otherwise
T1 chain: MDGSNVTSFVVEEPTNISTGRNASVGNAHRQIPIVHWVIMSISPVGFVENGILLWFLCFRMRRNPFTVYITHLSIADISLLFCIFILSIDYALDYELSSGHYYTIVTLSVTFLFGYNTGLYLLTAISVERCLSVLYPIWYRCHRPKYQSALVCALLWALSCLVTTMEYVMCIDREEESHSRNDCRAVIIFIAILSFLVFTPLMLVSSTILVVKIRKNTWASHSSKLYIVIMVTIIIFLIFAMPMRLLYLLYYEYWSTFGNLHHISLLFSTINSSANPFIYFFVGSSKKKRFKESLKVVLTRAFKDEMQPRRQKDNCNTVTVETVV

Sequence of UniProt P30554 (P30554 whole entry, the tested form may be a part): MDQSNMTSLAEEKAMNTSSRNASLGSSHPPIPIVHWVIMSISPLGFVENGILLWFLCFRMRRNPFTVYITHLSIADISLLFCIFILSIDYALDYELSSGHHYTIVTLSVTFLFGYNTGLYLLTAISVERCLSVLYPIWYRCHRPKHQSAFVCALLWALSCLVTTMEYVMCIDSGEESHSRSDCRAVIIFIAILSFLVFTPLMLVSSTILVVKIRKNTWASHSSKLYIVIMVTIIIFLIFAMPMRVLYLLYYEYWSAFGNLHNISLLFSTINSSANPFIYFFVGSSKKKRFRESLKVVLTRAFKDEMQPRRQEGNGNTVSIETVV

Molecule	PLA red dots/cell (striatal neurons) (red dots/cell) [1]	BRET50 [2] [mBU]
Angiotensin AT1 receptor, endogenous in mouse striatal cells (from UniProt P29754 1-359)	1.44	
Angiotensin AT1 receptor fused to YFP (AT1R-YFP), P30556 1-359 (receptor) MILNSSTEDGIKRIQDDCPKAGRHNYIFVMIPTLYSIIFVVGIFGNSLVVIVIYFYMKLKTVASVFLLNLALADLCFLLTLPLWAVYTAMEYRWPFGNYLCKIASASVSFNLYASVFLLTCLSIDRYLAIVHPMKSRLRRTMLVAKVTCIIIWLLAGLASLPAIIHRNVFFIENTNITVCAFHYESQNSTLPIGLGLTKNILGFLFPFLIILTSYTLIWKALKKAYEIQKNKPRNDDIFKIIMAIVLFFFFSWIPHQIFTFLDVLIQLGIIRDCRIADIVDTAMPITICIAYFNNCLNPLFYGFLGKKFKRYFLQLLKYIPPKAKSHSNLSTKMSTLSYRPSDNVSSSTKKPAPCFEVE		13

From publication PMC7817140
